T1: human FcγRIIa type H (human, UniProt P12318 36-217)
T1 construct: also called FcyRIIaH; FcγRIIa(H)
T1 sequence: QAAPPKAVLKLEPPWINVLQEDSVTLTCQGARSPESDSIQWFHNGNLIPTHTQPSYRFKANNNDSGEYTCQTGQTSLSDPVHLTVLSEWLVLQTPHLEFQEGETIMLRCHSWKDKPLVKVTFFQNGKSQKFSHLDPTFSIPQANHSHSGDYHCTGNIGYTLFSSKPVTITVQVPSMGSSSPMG

T2: human FcγRIIb (human, UniProt P31994 43-217, limits assumed)
T2 construct: also called FcyRIfb; FcγIIB
T2 sequence: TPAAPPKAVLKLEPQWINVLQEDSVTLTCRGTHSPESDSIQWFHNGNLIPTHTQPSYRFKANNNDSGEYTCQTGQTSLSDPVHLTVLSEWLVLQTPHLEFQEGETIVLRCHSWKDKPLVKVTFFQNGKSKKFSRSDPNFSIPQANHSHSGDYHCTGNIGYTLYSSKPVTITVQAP


Columns and labels:
Assay in all cases: SPR (Biacore), FcγR over captured antibody; binding amount relative to IL6R-BF648/IL6R-L x100
[1] = target: T1, human FcγRIIa type H
[2] = target: T3, human FcγRIa (human, UniProt P12314 16-292, limits assumed)
T3 construct: also called FcyRIa; CD64

[3] = target: T4, human FcγRIIIa type V (human, UniProt P08637 17-208, limits assumed)
T4 construct: also called FcyRIIIa; FcγRIIIaV

[4] = target: T2, human FcγRIIb

T3 sequence (P12314 16-292 limits assumed): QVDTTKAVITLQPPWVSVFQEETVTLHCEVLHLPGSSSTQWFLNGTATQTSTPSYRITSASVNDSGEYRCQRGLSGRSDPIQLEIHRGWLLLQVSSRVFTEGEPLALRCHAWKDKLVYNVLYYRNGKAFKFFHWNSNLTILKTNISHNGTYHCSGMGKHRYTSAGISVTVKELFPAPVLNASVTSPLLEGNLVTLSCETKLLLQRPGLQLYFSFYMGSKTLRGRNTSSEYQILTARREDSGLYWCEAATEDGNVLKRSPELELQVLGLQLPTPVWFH
T4 sequence (P08637 other isoform, or with tags, fused parts or gaps limits assumed): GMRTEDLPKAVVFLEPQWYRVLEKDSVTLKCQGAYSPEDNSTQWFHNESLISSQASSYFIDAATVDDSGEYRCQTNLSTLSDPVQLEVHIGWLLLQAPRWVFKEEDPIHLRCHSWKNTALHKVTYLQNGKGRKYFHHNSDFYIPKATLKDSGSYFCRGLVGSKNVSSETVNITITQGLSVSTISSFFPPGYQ

relative binding [1] | relative binding [2] | relative binding [3] | relative binding [4] | Binder
147 % of IL6R-BF648/IL6R-L | 118 % of IL6R-BF648/IL6R-L | 147 % of IL6R-BF648/IL6R-L | 116 % of IL6R-BF648/IL6R-L | IL6R-2B002/IL6R-L (antibody, human IgG1, name in EU numbering) heavy: QVQLQESGPGLVKPSETLSLTCAVSGHSISHDHAWSWVRQPPGEGLEWIGFISYSGITNYNPSLQGRVTISRDNSKNTLYLQMNSLRAEDTAVYYCARSLARTTAMDYWGEGTLVTVSSASTKGPSVFPLAPSSKSTSGGTAALGCLVKDYFPEPVTVSWNSGALTSGVHTFPAVLQSSGLYSLSSVVTVPSSSLGTQTYICNVNHKPSNTKVDKKVEPKSCDKTHTCPPCPAPDLLGGDSVFLFPPKPKDTLMISRTPEVTCVVVDVSHEDPEVKFNWYVDGVEVHNAKTKPREEQYNSTYRVVSVLTVLHQDWLNGKEYKCKVSNKALPAPIEKTISKAKGQPREPQVYTLPPSRDELTKNQVSLTCLVKGFYPSDIAVEWESNGQPENNYKTTPPVLDSDGSFFLYSKLTVDKSRWQQGNVFSCSVMHEALHNHYTQESLSLSP light: DIQMTQSPSSLSASVGDRVTITCRASQDISSYLNWYQQKPGKAPKLLIYYTSRLHSGVPSRFSGSGSGTDFTFTISSLQPEDIATYYCQQGNTLPYTFGQGTKVEIK
179 % of IL6R-BF648/IL6R-L | 140 % of IL6R-BF648/IL6R-L | 144 % of IL6R-BF648/IL6R-L | 132 % of IL6R-BF648/IL6R-L | IL6R-2B172/IL6R-L (antibody, human IgG1, name in EU numbering) heavy: QVQLQESGPGLVKPSETLSLTCAVSGHSISHDHAWSWVRQPPGEGLEWIGFISYSGITNYNPSLQGRVTISRDNSKNTLYLQMNSLRAEDTAVYYCARSLARTTAMDYWGEGTLVTVSSASTKGPSVFPLAPSSKSTSGGTAALGCLVKDYFPEPVTVSWNSGALTSGVHTFPAVLQSSGLYSLSSVVTVPSSSLGTQTYICNVNHKPSNTKVDKKVEPKSCDKTHTCPPCPAPELLGGDSVFLFPPKPKDTLMISRTPEVTCVVVDVSHEDPEVKFNWYVDGVEVHNAKTKPREEQYNSTYRVVSVLTVLHQDWLNGKEYKCKMSNKALPAPIEKTISKAKGQPREPQVYTLPPSRDELTKNQVSLTCLVKGFYPSDIAVEWESNGQPENNYKTTPPVLDSDGSFFLYSKLTVDKSRWQQGNVFSCSVMHEALHNHYTQESLSLSP light: DIQMTQSPSSLSASVGDRVTITCRASQDISSYLNWYQQKPGKAPKLLIYYTSRLHSGVPSRFSGSGSGTDFTFTISSLQPEDIATYYCQQGNTLPYTFGQGTKVEIK
128 % of IL6R-BF648/IL6R-L | 121 % of IL6R-BF648/IL6R-L | 138 % of IL6R-BF648/IL6R-L | 110 % of IL6R-BF648/IL6R-L | IL6R-BP100/IL6R-L (antibody, human IgG1, name in EU numbering) heavy: QVQLQESGPGLVKPSETLSLTCAVSGHSISHDHAWSWVRQPPGEGLEWIGFISYSGITNYNPSLQGRVTISRDNSKNTLYLQMNSLRAEDTAVYYCARSLARTTAMDYWGEGTLVTVSSASTKGPSVFPLAPSSKSTSGGTAALGCLVKDYFPEPVTVSWNSGALTSGVHTFPAVLQSSGLYSLSSVVTVPSSSLGTQTYICNVNHKPSNTKVDKKVEPKSCDKTHTCPPCPAPELLGGDSVFLFPPKPKDTLMISRTPEVTCVVVDVAHEDPEVKFNWYVDGVEVHNAKTKPREEQYNSTYRVVSVLTVLHQDWLNGKEYKCKVSNKALPAPIEKTISKAKGQPREPQVYTLPPSRDELTKNQVSLTCLVKGFYPSDIAVEWESNGQPENNYKTTPPVLDSDGSFFLYSKLTVDKSRWQQGNVFSCSVMHEALHNHYTQESLSLSP light: DIQMTQSPSSLSASVGDRVTITCRASQDISSYLNWYQQKPGKAPKLLIYYTSRLHSGVPSRFSGSGSGTDFTFTISSLQPEDIATYYCQQGNTLPYTFGQGTKVEIK
66 % of IL6R-BF648/IL6R-L | 104 % of IL6R-BF648/IL6R-L | 86 % of IL6R-BF648/IL6R-L | 106 % of IL6R-BF648/IL6R-L | IL6R-BP102/IL6R-L (antibody, human IgG1, name in EU numbering) heavy: QVQLQESGPGLVKPSETLSLTCAVSGHSISHDHAWSWVRQPPGEGLEWIGFISYSGITNYNPSLQGRVTISRDNSKNTLYLQMNSLRAEDTAVYYCARSLARTTAMDYWGEGTLVTVSSASTKGPSVFPLAPSSKSTSGGTAALGCLVKDYFPEPVTVSWNSGALTSGVHTFPAVLQSSGLYSLSSVVTVPSSSLGTQTYICNVNHKPSNTKVDKKVEPKSCDKTHTCPPCPAPELLGGDSVFLFPPKPKDTLMISRTPEVTCVVVDVQHEDPEVKFNWYVDGVEVHNAKTKPREEQYNSTYRVVSVLTVLHQDWLNGKEYKCKVSNKALPAPIEKTISKAKGQPREPQVYTLPPSRDELTKNQVSLTCLVKGFYPSDIAVEWESNGQPENNYKTTPPVLDSDGSFFLYSKLTVDKSRWQQGNVFSCSVMHEALHNHYTQESLSLSP light: DIQMTQSPSSLSASVGDRVTITCRASQDISSYLNWYQQKPGKAPKLLIYYTSRLHSGVPSRFSGSGSGTDFTFTISSLQPEDIATYYCQQGNTLPYTFGQGTKVEIK
1600 % of IL6R-BF648/IL6R-L | 145 % of IL6R-BF648/IL6R-L | 3260 % of IL6R-BF648/IL6R-L | 58 % of IL6R-BF648/IL6R-L | IL6R-B3/IL6R-L (antibody, human IgG1, IL6R-G1d with K439E (EU numbering)) heavy: not shown light: DIQMTQSPSSLSASVGDRVTITCRASQDISSYLNWYQQKPGKAPKLLIYYTSRLHSGVPSRFSGSGSGTDFTFTISSLQPEDIATYYCQQGNTLPYTFGQGTKVEIK
83 % of IL6R-BF648/IL6R-L | 73 % of IL6R-BF648/IL6R-L | 94 % of IL6R-BF648/IL6R-L | 104 % of IL6R-BF648/IL6R-L | IL6R-2B169/IL6R-L (antibody, human IgG1, name in EU numbering) heavy: QVQLQESGPGLVKPSETLSLTCAVSGHSISHDHAWSWVRQPPGEGLEWIGFISYSGITNYNPSLQGRVTISRDNSKNTLYLQMNSLRAEDTAVYYCARSLARTTAMDYWGEGTLVTVSSASTKGPSVFPLAPSSKSTSGGTAALGCLVKDYFPEPVTVSWNSGALTSGVHTFPAVLQSSGLYSLSSVVTVPSSSLGTQTYICNVNHKPSNTKVDKKVEPKSCDKTHTCPPCPAPELLGGDSVFLFPPKPKDTLMISRTPEVTCVVVDVSHEDPEVKFNWYVDGVEVHNAKTKPREEQYNSTYRVVSVLTVLHQDWLNGKEYKCKISNKALPAPIEKTISKAKGQPREPQVYTLPPSRDELTKNQVSLTCLVKGFYPSDIAVEWESNGQPENNYKTTPPVLDSDGSFFLYSKLTVDKSRWQQGNVFSCSVMHEALHNHYTQESLSLSP light: DIQMTQSPSSLSASVGDRVTITCRASQDISSYLNWYQQKPGKAPKLLIYYTSRLHSGVPSRFSGSGSGTDFTFTISSLQPEDIATYYCQQGNTLPYTFGQGTKVEIK
115 % of IL6R-BF648/IL6R-L | 116 % of IL6R-BF648/IL6R-L | 122 % of IL6R-BF648/IL6R-L | 113 % of IL6R-BF648/IL6R-L | IL6R-2B171/IL6R-L (antibody, human IgG1, name in EU numbering) heavy: QVQLQESGPGLVKPSETLSLTCAVSGHSISHDHAWSWVRQPPGEGLEWIGFISYSGITNYNPSLQGRVTISRDNSKNTLYLQMNSLRAEDTAVYYCARSLARTTAMDYWGEGTLVTVSSASTKGPSVFPLAPSSKSTSGGTAALGCLVKDYFPEPVTVSWNSGALTSGVHTFPAVLQSSGLYSLSSVVTVPSSSLGTQTYICNVNHKPSNTKVDKKVEPKSCDKTHTCPPCPAPELLGGDSVFLFPPKPKDTLMISRTPEVTCVVVDVSHEDPEVKFNWYVDGVEVHNAKTKPREEQYNSTYRVVSVLTVLHQDWLNGKEYKCKLSNKALPAPIEKTISKAKGQPREPQVYTLPPSRDELTKNQVSLTCLVKGFYPSDIAVEWESNGQPENNYKTTPPVLDSDGSFFLYSKLTVDKSRWQQGNVFSCSVMHEALHNHYTQESLSLSP light: DIQMTQSPSSLSASVGDRVTITCRASQDISSYLNWYQQKPGKAPKLLIYYTSRLHSGVPSRFSGSGSGTDFTFTISSLQPEDIATYYCQQGNTLPYTFGQGTKVEIK
